Here are results for 17 sequences from a protein production outcome set (Wang et al. 2014).

The nature of this series: label from the status in PepcDB records.
For “MSPAAECRRQLSLDSSEAIGLQPLMQRASNTAGVFVMIDTQLEQQLQGFSALQSLFEADFDVRRLFTAEDALEAGEYGRLTVEALRNDPAAGQLFEERWVLPELNLSSLLQLPEGSFGRVYAEMLVGNGFDPDYVIQIAPVEGDDDLSYFKRLWRTTHDFHHIATGLGTDPRGEVALQAFLMGQLPIPFSVVVVSMGLLRTSVAQPDRIPALVDAISDAFRRGRHSPQLLLAQRWDHFWALPVAEVRQQLQIADLEHHHHHH”, the protein production entry is listed as “failed”.
Regarding “MSPGGLCDAPHMAVAPRVKPLDLFTPEEWTRISARSSWRGIWMVAHAWGVILAAGALFVAFPNPLTYVLAVMLIGARQLGLAILMHEAAHGGLHPKLKVNDWLGEWLCAAPVGASLASYRPYHLSHHKYAQQAEDPDLVLSAPFPTTRRSLRRKMIRDLTGQTFFKQRFGPLLGKMKGAKTTGQPKGAIFAGEIARQRPFLLWNLGILVVLSALGLWWAWPALWIVPMATWFPLVTRLRNIAEHALVAKDEPDPFRHARTTNANWIERALIAPYYVNFHAEHHMFMHTPCWNLPLAHRVLEKKGLTQGMLTAPGYLSVLKAASSKPVAA”, the protein production entry was “failed”.
For “MSPIALNLLQSTPYQVGGSLAANHPSYSQREADRELLAQLRAGKFCYVFNCRQMGKSSLRVRAMHQLQQDGVVCVSIDITSLGTEADPQKWYNGIITQLYLGLPLAGKVALKPWLREREQLSPIQKLREFVETIILQTIGDRQIVIFIDEIDKVLSLPFSLDDFFSYIRFCYNQRADDHEYNRLSFALFGVATPSDLIDNKTQTPFNIGQAIALTGFTLTEALPLSAGLPVDEVSAREILGEILAWTGGQPFLTQKVCELVAEALQKGDLDCQSQTIATTIAQLIEEKIIRHWESNDEPVHFRTIGDRLLKDQARSGQLLGLYQEILHKGAIPADDSVEQTVLRLTGLVVKVKGQLRPYNPIYQAIFNAQWVSKELNKLRPYGTNLQAWINSNYQDSSRLLRGEALREALAWASSKNLSGVDYRYLNASQNQEQEASLAANQILTQANVKAKRMISFGIVVLMMSLGGSAIALSQAYFATLKQQRSQQGTELQRLGTSAQRQFTFDQIPGLVTALEAGNQLHHLVKADETLSQYPATSPLVSLQQILSQIAEKNVLTGHRDGVTSVAISSHKNLIASASRDGTVHLWTPQGEFLREFTGHTGSIYRVDFSPNGKIFATAGQDQTVKIWDLDGNLLQTLKGHQDSVYSVSFSPDGEILASTSRDRTVRLWHWRSGKTLAVLGGHTKSVDDAQFSPDGQTLVSVCRDGQIRLWDLDGNLIRQFGLPEVAFFGVNWHPNGNLLAVAADDGTVRLWTPQGEIKATLSGHDEFVTRVVFTPDGKQLFSSSSNGSVIHWSTSGKMLKKYQGYPEAIFGLALASNGALLAIGAENNLVKVWDMSPKSDLVNLNLPAVLGAVAENAKTNTIALAMENEPLILFNTKNRSRQFLSDASQNLDRLKFSADGQWLLGQRGRQWQLWQLQTKSQLLKTWRTDISRVYDVDLRTTPTSPQWAIAMATGSGEVQLWQGTKNNQTSGNQSQGVPIELNDPIVLALGNSIQRKEPIRSVSLHPTLPQLAAGDEQGNLTLWNFDGTLIRSIVAHGDRLNQLQYSPNGKYLLSAGREGTAKIWSVEGQLLHTLKSDPLPIDQIAISPDSQWIATAASDGMVRLWDQQGNLRGEFTSTSGSLLGLDFNRQGQWLLAVAQNGDLQSWPVTPEKERLRQLVEQGCDWLRDYLATEKQPAQTYSLEFCQPTGN” the value was “failed”; for “MSPPARKLDPWTLLLWLGLAAVSLVALYSTTHGPAAEYIGPGVQDNFARQFLWIGVSIAGIAATLLVPVRFLRYAAYPAYAATLVLLVLCLVMGVEVHGTRAWLALGPLRLQVSELAKVGTVLAVAQLLSERHTRAGQDLSFALKAAGLIVAPALLVILQNDLGTALVFFGLVPIMLFWSGLSLSVLLLMVSPAIAGYFALVSTPAALGFAVLFTGGLWAYSGRRSIAALAATFTAGVTALISFVLRKILQPYQVDRLLSFTNPGAEQFRQGVGFHLVQSKAALYSGGIWGTGFMQGPQTQGAYVPEQTTDFIFSVVAEEFGLVGSLVVLGLLAALLLRLIKLGADVKHPFGSIVAAGAVGVYLIHIFINIGMVTGMLPVIGLPLPFLSYGGSAMLANTALLAIVLNTHMRREDLSIYGY”, “failed”; for “MSPPPAVVTESADGQPEQPPVTAIAEELEKKLQTDEPIVEDVKDDEDDDDDDEEEEDDDAQGVSGSSKQSRSEKKSRKAMLKLGMKPVTGVSRVTIKRTKNVLFFISKPDVFKSPHSETYVIFGEAKIEDLSSQLQTQAAQQFRMPEIGATSQRAEASTATVEAQVEEDEEEIDETGVEARDIDLVMTQAGVSRSKAVKALKSHDGDIVSAIMELTT”, “failed”.
Regarding “MSPSCPMCTKWLDEPEFRIAELEHTRVMLNRDQFFPGYTFVFTREHVTELFHLSPPVRQGVMEEVTAVAAALYDLFQPAKMNYELLGNMVPHMHWHLVPRFATDPLWPRPIWSEPHAETLLAPEEYAGRIALIRDRLGL”, the protein production result was “failed”.
Consider “MSPSHSINSNSDGNASCSTCSTCFDTTTSTTDEEYDALIKTKTWSLVPKPAGTNIINSIWLYKHKYNADGSLSRYKSRLVANGKSQEHGVDFYETFSPVVKPATIRAVLNFAVERDSSVHQLDVQNAFLHGKLEETVYMYEPPGFVDNKNPGYVCKLNKALYGFKQAPRAWNARFASYVKMMGFKQSKCDASLFVYKQGNDMAYLLLYVDDIMLTASSPSQEKYAKNIINIVEMQNWKPSLTSVDLACKLEESVGPKIQDLTLYRSLVGALQYLTITRPNISYAVQQGLSITKSPSTKLVADSDADWVGCPNTRRSTSGYCVFLRDTLISWSSKRQGSVSRSSAEAEYKAVANAVVATCEVRVIHIPASHQYADIFTKGLTTSLFNRFKSSLGVIQRPTKRLREGDLLFNRKDEIRTFEVVSRYGHGPKLLGRFSGGRIEEFINARTLSAANLRDAEVPTRVAAKLREFHGINIPGDRNVLIWDRMRNWLRQAKSLCTPEDLAEFGLDKIEDEIYLLEHELQDKCKQQEIGFCHNDLQYGNIMIDEDTNAITIIDYEYASYNPVAYDIANHFCEMAANYKVAGEEERRRFIHNYLSSSGEEPKEDDIKQLLKDAEKYTLASHLFWGLWGIISGYVNKIDFDYAEYSRQRFKQYWLRKPELLLFSQMYISNTK”, for which the protein production result is reported as “failed”.
The value for “MSPTVLPATQADFPKIVDVLVEAFANDPTFLRWIPQPDPGSAKLRALFELQIEKQYAVAGNIDVARDSEGEIVGVALWDRPDGNHSAKDQAAMLPRLVSIFGIKAAQVAWTDLSSARFHPKFPHWYLYTVATSSSARGTGVGSALLNHGIARAGDEAIYLEATSTRAAQLYNRLGFVPLGYIPSDDDGTPELAMWKPPAMPTV” was “not failed”; that for “MSPVLLFILGVVFVAIGVAVSIALHEVGHLVPAKLFKVRVTKYMIGFGPTLWSKKKGETEYGFKALPLGGYVSMIGMYPPNKEDGAVRPSSTGMFQTLATEARSMAHEEVGPGDENRVFYKLPVWKKIIVMLGGPAMNMLIGLILLAVLLMGFGMATATTTIADVSKCQVAAGETVDPDSADCKLTPAAAAGLQPNDTITSFDGKAVTSWDELTSWIRASAGRDVPITVERNGSTVETTVTPVLSSRPVVGADGRPEQDADGVLKYQEVGFLGIGAQSELVPQPASAVLPMAGENIKQISGVIFNLPARVVGVAKAAFSEEPRDPNGPISVVGVGRVAGEVAAMEQVPMQARIGTLIGLLAGLNFALAIFNLIPLLPLDGGHVAGALYEGARRRVAKLLGKPDPGAFDIAKLLPATYVVAALLMAMGALLIYADIVKPVNIFG” was “failed”; that for “MSQANANFLDNSKVSANKTAESGQLKEFRTPPHNLAIEQAVLAALMTVAESFEQVNDLLKENDFYATRHKYIFRAIEKLAQENSPYDAVLVNDWLLKQNLLDAIGGEEYLMQLMADSPSSFYNLETYASKIKEFSTLRSMIKVSSDILQNAYDTKGRPVSEILDLAETSIFSLAEQHNNNKKDAGPKSISSVTADVISKLDELSKLDGNITGLTTGFLELDNKTYGMQSGDMIIVAARPSMGKTTFAMNLVESVLFNCNLPALVFSMEMPADSIAMRLISSYGKVHQGHLRSGKLDGDEWSKVTGTILQLQEKHLYIDDSSALPPTELRARARRIAKQHGGKLGCIMIDYLQLMKVPGMGDNRVGEIGEISRSLKALAKEMDCPVIALSQLNRSLENRPNKRPVMSDLRESGAIEQDADLIMFIYRDEVYNKESKEAGTAEIIIGKQRNGPIGTVRLAFEGQYTRFSNLSPEYYSQYDDEE” was “failed”.
In the case of “MSQDKQMKAVSPLLQRVINISSIVGGVGSLIFCIWAYQAGILQSKETLSAFIQQAGIWGPPLFIFLQILQTVVPIIPGALTSVAGVFIYGHIIGTIYNYIGIVIGCAIIFYLVRLYGAAFVQSVVSKRTYDKYIDWLDKGNRFDRFFIFMMIWPISPADFLCMLAALTKMSFKRYMTIIILTKPFTLVVYTYGLTYIIDFFWQML”, the protein production entry was “failed”.
As for “MSQETPYIFDARTADFDQSVIENSFHKPVLVDFWAEWCAPCKALMPMLQQIAESYQGELLLAKVNCDIEQDIVARFGIRSLPTVVLFKDGQPVDGFAGAQPESAVRAMLEPHVQMPPPPAADPLEQAEALFAEGRIGDAEALLKVLLGEDNSNAKALILYARCLAERGELGEAQTVLDAVKSDEHKAALAGAKAQITFLKQAADLPDAAELKARLAKDPQDDEALYQLAIQQLARQQYEAALEALLKLFMRNRSYNEGIAHKTLLQVFDLLGNDHPLVTAYRRKLFAALY”, the protein production result is on record as “failed”.
The value for “MSQFSTVWVLSDVLSPLPELMGGASSLGQSINVFTFNDEQSIAAFKLGATAVFQLEGKPDDRIMEDYAQSIVETIKSHSDAGLVLLPNTRRGKLFAARLGHRLAAVVSNDAQSLSTQNDTLVAKHMVYGGLAFSDETLTTPYCVVTASTGAFDVASETQATGTAQKVAWIAPSQSIICQSIQ” was “failed”; that for “MSQLEKAQAEYAGFIQEFQSAIISTISEQGIPNGSYAPFVIDDAKNIYIYVSGLAVHTKNIEANPLVNVLFVDDEAKTNQIFARRRLSFDCTATLIERESQKWNQVVDQFQERFGQIIEVLRGLADFRIFQLTPKEGRFVIGFGA” was “not failed”.
Regarding “MSQNLQPPIPLLVPETAPFSEEQRAWLNGFFAGLVSLDGQGVTALSPDQAAALLAGGPAPVAEDDDGGAPWHDQSLPIGERMQLAEGKPLRWKLMAAMAQQDCGQCGYDCRNYSGAIFDGQETRLNLCAPGGKDTARMVKTLTEQIGAAPTLDNAPSLAADAAPVVALPPRGTSRDNPATAKVLSRKRLNKPGSEKETWHVEFELEDCLSYEAGDSFGLFPTNDPALVDAVLHALGAPAEFPIAQSTLRQTLLDSVSLSPAPDMLFQLISYITGGDKRKKARSLASGEDPDGDAATLDVLAALEKFPGLRPDPEAFIEALDPLQPRLYSISSSPKTTPGRLSLTVDCVRYAIGKRQRLGVCSTGLAERVRPGETLRAYVQKAHHFALPSDPNQPIIMIGPGTGIAPFRAFLHERQAIQAPGKNWLFFGHQRSASDFFYEDELKAMKTAGHLTRLTLAWSRDSGEKIYVQDRIREVGRDLWSWLAEGASLYVCGDAKRMAKDVERALVDIVAQHGARSAAEATAFVSELKKQGRYQQDVY”, the protein production result is “failed”.
For “MSQPEPRAGENRALRAFAPDAGLFLLKPWIGGLALLADWGLIAAAFACAALWPHPVIYLLAALLIARSQLALAVLMHESAHGLLLRGQKANDRLGQWLAAGPLFLSLCTYRAGHLKHHLHPMEHDDPVVAVFGLGDYPLPRGKLALRLLADLCGVGYFISALRFARGDYRAIMPRVDKSPRQALAQVLSMLVSNGLLFGLLAWSGHPWLYLGLWLLPAITLLPLLGRVRAIMEHAGLPVAADQSRNARSIVRPSVQTFLFGPHAIHYHIEHHLYVRVPFYHLGGLHRQLATAQLLPEGNLYQGYGGVLRDVSDPDWRSSAR” the value was “failed”.
The value for “MSQQAARKLEKADIEAIFARSRFISAMNLEILDIDHAGSRFSVRMPLQDTYERGAPGTKQFHGGALAALIDVVGDFAIGMLVGGGVPTMNLRIDYLRPAVGDYVDGVAVVRKAGKSAAVVDIDILCPAGKLVAIGRGTYVPITG” was “failed”.
